The text below walks through data of the DeepSol protein solubility set.

The data set can be described thus: soluble on expression in E. coli; label from the status in PepcDB or PDB records.
On to “MGSDKIHHHHHHLRASSSIRVGAERAHLAIGAASKRMADLEASIGVQLFERHARGVALTAAGEALERHTQRILNDMDRMTAEMSDYAAGVVGVVRLWANTSSVTQFLPTDIAAFSVVHPDIRIELEEQDSEQVALAVVDGAADFGIMADRMPTLGLQAMLYRKDHLFLVVPDGHPLTQRESVSFVDALEFDFVSLARNTSLAKRLQAATAFSGGQIKLRIQVRSFDAMCLMVAAGPGIAILPDAAVGPHLRSMDLCRIPLSENWTRRELFICARDLNALPRPASLLVNHLIGATPDAVAVR”, for which the “soluble on expression in E. coli” value is reported as “not soluble”.
The value for “MKENIEKLFQAIAQKNPIHSKYLKKIEFSQEDEEEFDKLISYYIQDGISIKEQCDCYLLILNDTLEETKFFIENGAYRYSSFDEVKDKVYFNESYMKQYMIGLALSSFVWIAHIKVRKYFSQYLQNFTPKTTYFEIGPGHGEYFARAVKSGKFSAFYGLDISPTSCELTQKMVKQQVGGLITKCDFLCQDFFTYDFDKKADLIVIGEVLEHVEKPLEFLKRSKELLSDGGEIFATIPINAPAIDHIYLFSHPDEVKDLIEKSGLKFKAYECFMANDYSLEKALKFKNAITMAVVLNALEHHHHHH” was “soluble”; that for “MINQDFILSQVVGGSLDAVAREMSATVTRTARSPLFNEAHDFTTGVFDLSGKKSRLVAQAPGCTLHLYAVVGAVDHLLDAFRYDLHPGDILLVNDPYHGGSHSLDWTIVMPVFYNRKPILLPAVRSHMADNGGPVAGGYNPRSKDIWHDGLRIPPLKIYERGEKRRDVFDLIVANNRLSHWLEGDLNAMIGACKVAASRIQTMLDKYGAEKVITAIDNRIQYTENRVRDEISSWPDGTYVGETFADHDFQGNRDIKVRATVTVKGSDLHIDFTGSSPQVKGFINSPLSNTTSFAFVGISTCCDEDIPINEGYMNPVTVTAPIGTVVNPQLPAPCGHATACVGAEIAEAVLQAISQCAPKRVGVNAHKLPLAYSHGKYDDGKPWVNLNFYGYTGGAGAAYETDGWGLYPPVMTGVILPSIEMTEVQYPSRVLKHEYTSDFTGAGRWRGTPGLDVQIQHLKESRTSVMMAGGRNTTKGFCGAGDSPSNKVIVGYGTDEAREIDETAFEVKMPVGGIIQFYRAGGGGWGNPLEREPEKVLDD” was “not soluble”.
Then “KQNSLMGITGGLTARYISEKYFAMICGAQVELNISQRGWDELFEVPGENGEPVEDPTRKYTRKMTYLDIPFLAHLAFGNEKGLQFFINAGPQIGLLIGESESMENIDMNALTDTQKAVYGDKIQNKFDYGIAGGGGIEFRTKKAGSFLLEGRYYFALSDFYSTTKKDYFSRAAHGTITVKLTYLFDLK”, with “not soluble”; and “MERKLFAFDIDGTLLNSEKKALDSTREALAKLREQGHLVTLATGRSRYMAQEVIWDLDFTNYVLCNGAAAFVDHEQYYQNLLHAEALERLAQDSDQRGLGFACVGLDDIKKSNQHRAEKMEIAMNSFHFHSPAYDEHFYRQNDIYQALAFYDAEDQCTFEEEYPEFRFIRWHQHSVDVVPKDGSKSATLTYLAKRVGIDAKNIIAFGDGENDREMLSHAGIGVAMGNASPSIQKVATMVTDTNDNDGIWKALKEMKAI”, with “not soluble”.
On to “MGSDKIHHHHHHMFNLEEYTEKAQKVMMSIQDIMTRYRQNQLSSEHILLAILEEGNNVGVELLKELNVDINRLKDEVEVFIGKYGVRVPEGASVSQIFITPDARHVIEKAREEARRMGDSKIGTEHLILGMVLSPDSTAFRILSRYGVTPERVYEAIRKIRSTGKTDEAENVEALARFTVDLTQLAREKKLMPVVDREKEIRRVIQILSRRTKNNPVLIGDPGVGKTAVVEGLAQRIVEGKVPLFLRNVRVLKLDMGRLVAGTRFRGDFEERLKRLLDELKRKKGEVILFIDEVHTVVGAGAAEGALDAANIMKPELTTGEIQIIGATTVEEYRKYIEKDRALERRFQPVMVEEPTVEQTIEILKGLRKVFEEHHHVKITDDALEAAAKLSARYITNRFLPDKAVDLIDEAAAYVRLESSYPSEELLKLEEEIKNLEDKINDAVVKGEYEEAAKLKVELQKLKNEYEEKRKKQEKVEPVVDENVVAKIVEQWTGIPVSRIMESEREKLLKLEEFIHQRLVNQEEAVKIVARTIRRARVGIKNPRRPIGVFLFLGPTGVGKTELARTLADVLFGSEDAMIRLDMSEYMEKHSVARLIGAPPGYVGYEEGGQLTEAVRKRPYSVILLDEIEKAHPDVFNILLQVFEDGRLTDGKGNTVDFRNTIIIMTSNIGSEKILEMSENGVRIEIEKELRNTFKPEFLNRIDAIVYFKPLTMEEVKKIVEIMVRQLQEILKEKNISIELTERAKEYLAEAGYVPSLGARPLRRIIELELESMIADKILEGEIKEGDRVLVDADEYGLKIERR”, for which the “soluble on expression in E. coli” value is on record as “not soluble”.
Then “MLRSTVIVTAHRRKAFIKDAIESVMENSLKPTEIIVVKNFKDYQIDSFLETYHVKNIYTDDETLGGKISLGIYQSSGDILFFLDDDDLFSKDKIREVIYKFSKYDIGFYHNAQEVIHNKLTGSNLSTDNQRFMYYTSIDTRRLKELLYKFKAGFNGSSIVISRDLAMRCVDLLKNVNISVDTFLLFCAVENNLPIMIDFRKLTYYRIIMSQNSNTEVNDKLFKMLYEDALYFKQIFSSKALRDFIEMSIIQHDFLYKIISKKEISKRDALISMVKMLRYSLKYPNKWNFFLQGLSLLSVFSAEKSRSLYLKKVRSNSMLSILEHHHHHH”, with “soluble”; and “MTHPLYIFDLDETLINGDCAMIWNEFLVDKGIVTTPDFLEEDKRLMTLYSRGLMDMEDYLIFAMSPLKNIPTDQVEILIEECVNERILPLLFPEAKILIHQLKADNVDMIVISASVSFLVKIVAKNIGIKHAIGIDLKEKNGCYTRHILGVPSYREGKVSRLTEWLNGGDKTYSALHFYTDSINDLPLCLYADHTYLVNPCEQLAVYSKKKNWPILAWGSQ”, with “not soluble”.
Then “MKDVSKNQEENISDTALTNELIHLLGHSRHDWMNKLQLIKGNLSLQKYDRVFEMIEEMVIDAKHESKLSNLKTPHLAFDFLTFNWKTHYMTLEYEVLGEIKDLSAYDQKLAKLMRKLFHLFDQAVSRESENHLTVSLQTDHPDRQLILYLDFHGAFADPSAFDDIRQNGYEDVDIMRFEITSHECLIEIGLD”, with “soluble”.
Consider “MVLLDNADRVVLLTEKERPRGRKIDISLTFLLPHDNWFSVEDGVSDHYFSRRGFLRASLLGVLCLRGIGSALATEFLEESYPVGRLSLRNIHTGEHLSVTYRTPDGEVDLDALNSINWLLRCHFTNQHTEMDLAVIEYLNMVDKVLGGGREFRIISGYRSPEYNRILSEHNGAVAKQSLHMEGKAIDIAVPGVSLAVLRDLAAGFRCGGVGYYPHSGFVHLDSGRFRTW”, for which the “soluble on expression in E. coli” value is “not soluble”.
Regarding “GPGSMLRRQCVPLRVVAAGLRLNSSSSGPSKTNDGGIPNATGMDNAPGLYAEKPSSTYCEEKYPNKVEEVGSLKPPTYDVPHGRSDNIKTPEFNTSLGKFDQAPYFTGGPPAMRYHGYKRDPAVEGVDYRDVLPKTPIEDHHPHMEFLSVTGRREGSTFLLANAGVNWELKAAAMSLYRTILKSLPMIKHYYWLLVPLPAMKDKIRLRFLQNQHTKDPDAIRHLLHNGWMEFQESIMFRRPR”, the “soluble on expression in E. coli” value is “not soluble”.
The value for “MSLKKVKCITGMISLQGKRPTNEDTEIVKDKIKKDKIKFGLYAVFDGHGGSGTSQAAISVVEEELMKSELMKKKMYEEMMNEIFSKSDKILCNTVYDNSGCTAAVVLVIGRFLICANVGDSEVLVISEGKQYEVLSVQHKAKLPDEKKRITSLGVPVYGGRVYGSLAVSRSLGDKQYKGGRGAVISTPHVKVYEMTKKDKAFVISCDGIYETLNYDDVVDWVITGMKLNKAPTIIAENIAMDALEKGSKDNVSVIVSLLKWKEGHHHHHH” was “not soluble”.
For “MNNTEPWKKYVPETVSLYHVDYRENLNEREDLQEQCIRNNNMERLYETVMECYAEQEAESLLKILGEIKEKMAEEKRQEEFEEHREEITDLILSRSDTDPAEELIKNSAAVNMYYSPGEKIEERIGKASKTMSCYKVRRALKLKKGQFDTLIEELVDNATYGGELRIYFNAGFNELVTNDNGKDFRTIRFHRDVIVAVANSFNGSGYHISLPLDITFPFVRDRLFVDSQVRYSYATEVCGMCRDWCDSTSWETEYKTVRNTSRNRQKEKTLSTN”, the “soluble on expression in E. coli” value is reported as “not soluble”.
The value for “MRRIILIFSLLTLSLMAFGEEIKVDRSVEESITKDYDQDGVYSSYEKALRRAQESVYVKLPEKRGYWYTILDRVKAEEEELMPEEINRMRRR” was “not soluble”.
